Data reported in PMC11203801.

Columns and labels:
Conditions in all cases: remark: other sources report otherwise
[1] = target: human HSP60 (60-kDa Heat Shock Protein) (human), P10809; assay: native gel or EMSA; HSP60 and HSP10 mixed at the same molar ratio, PBS or Mizoribine below 10 mM (1, 5 mM); Native/PAGE gradient gel, Coomassie stain
[2] = target: human HSP60 (60-kDa Heat Shock Protein) (human), P10809; assay: negative-stain transmission electron microscopy; HSP60 and HSP10 (0.1 mM) incubated for 10 min with 10 mM Mizoribine, treated with 2% uranyl acetate; particles classified and counted
[3] = target: human HSP60 (60-kDa Heat Shock Protein) (human), P10809; assay: negative-stain transmission electron microscopy; HSP60 and HSP10 (0.1 mM) incubated for 10 min in the absence of Mizoribine, treated with 2% uranyl acetate; particles classified and counted
[4] = target: human HSP60 (60-kDa Heat Shock Protein) (human), P10809; assay: native gel or EMSA; purified HSP60 and HSP10 each run on Native-PAGE (5-12% gradient gel by the legend; Blue NativePAGE 3-12% Bis-Tris by the methods), in the absence of ATP, Coomassie stain

B1: human HSP60 (60-kDa Heat Shock Protein), P10809 27-573 (natural protein)
chain: AKDVKFGADARALMLQGVDLLADAVAVTMGPKGRTVIIEQSWGSPKVTKDGVTVAKSIDLKDKYKNIGAKLVQDVANNTNEEAGDGTTTATVLARSIAKEGFEKISKGANPVEIRRGVMLAVDAVIAELKKQSKPVTTPEEIAQVATISANGDKEIGNIISDAMKKVGRKGVITVKDGKTLNDELEIIEGMKFDRGYISPYFINTSKGQKCEFQDAYVLLSEKKISSIQSIVPALEIANAHRKPLVIIAEDVDGEALSTLVLNRLKVGLQVVAVKAPGFGDNRKNQLKDMAIATGGAVFGEEGLTLNLEDVQPHDLGKVGEVIVTKDDAMLLKGKGDKAQIEKRIQEIIEQLDVTTSEYEKEKLNERLAKLSDGVAVLKVGGTSDVEVNEKKDRVTDALNATRAAVEEGIVLGGGCALLRCIPALDSLTPANEDQKIGIEIIKRTLKIPAMTIAKNAGVEGSLIVEKIMQSSSEVGYDAMAGDFVNMVEKGIIDPTKVVRTALLDAAGVASLLTTAEVVVTEIPKEEKDPGMGAMGGMGGGMGGGMF
stoichiometry N [1]: 7 | share of observed particles as HSP60 (7) (single ring structure, no HSP10), with 10 mM Mizoribine [2]: 4% | stoichiometry N [3]: 7 | stoichiometry N [4]: 7
